According to patent publication US20250076311A1 (Chugai, published 2025):
Like-named read-outs stand apart in the source and are kept apart here.

Experiments:
Human latent myostatin [1] = target: T1, Human latent myostatin (human, UniProt O14793 25-266; O14793 267-375); experiment: SPR affinity condition (capture 18.5 RU), pH7.4, 37C
T1 construct: Biotinylated in the ELISAs; also called human myostatin latent form
T1 sequence 1: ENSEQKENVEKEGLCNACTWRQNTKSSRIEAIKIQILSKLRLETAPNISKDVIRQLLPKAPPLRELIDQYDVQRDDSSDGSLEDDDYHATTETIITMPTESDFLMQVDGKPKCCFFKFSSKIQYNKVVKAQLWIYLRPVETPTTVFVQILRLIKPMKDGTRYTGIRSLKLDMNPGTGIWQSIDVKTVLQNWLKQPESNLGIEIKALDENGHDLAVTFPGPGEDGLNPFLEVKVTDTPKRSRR
T1 sequence 2: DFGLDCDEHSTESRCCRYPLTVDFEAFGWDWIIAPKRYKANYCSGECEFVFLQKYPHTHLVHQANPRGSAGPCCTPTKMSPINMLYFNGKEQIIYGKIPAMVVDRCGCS
Protocol: (§1) The kinetic parameters of anti-latent myostatin antibodies against human, cynomolgus monkey (cyno), and mouse latent myostatin were assessed at 37° C. at pH7.4 using a BIACORE® T200 instrument (GE Healthcare). ProA/G (Pierce) was immobilized onto all flow cells of a CM4 chip using amine coupling kit (GE Healthcare). Anti-latent myostatin antibody and analytes were prepared in ACES pH7.4 (20 mM ACES, 150 mM NaCl, 1.2 mM CaCl₂), 0.05% TWEEN® 20, 0.005% NaN3). […] The sensor surface was regenerated with 25 mM NaOH. Kinetic parameters were determined by processing and fitting the data to a 1:1 binding model using BIACORE® T200 Evaluation software, version 2.0 (GE Healthcare).
(§2) All experimental settings were the same as in Example 7, except that measurements were also performed in ACES pH5.8 buffer in addition to ACES pH7.4 condition. Some antibodies were only measured against human latent myostatin. Antibody capture level was aimed at 185 RU and 18.5 RU, for avidity and affinity assay, respectively. Kinetic parameters were determined using 1:1 Binding fitting using BIACORE® T200 Evaluation software, version 2.0 (GE Healthcare).

Human latent myostatin [2] = target: T1, Human latent myostatin; experiment: SPR avidity condition (capture 185 RU), pH5.8, 37C; pH 5.8
Protocol: as §1, §2

[3] = target: T2, cynomolgus monkey FcγRIIIaS extracellular domain with C-terminal His-tag (cynomolgus monkey, UniProt Q8SPW2 21-206 at identity 1.00)); experiment: SPR, KD(SG1)/KD(variant)
T2 construct: also called cyno FcgRIIIaS; cynoFcγRIIIaS
T2 chain: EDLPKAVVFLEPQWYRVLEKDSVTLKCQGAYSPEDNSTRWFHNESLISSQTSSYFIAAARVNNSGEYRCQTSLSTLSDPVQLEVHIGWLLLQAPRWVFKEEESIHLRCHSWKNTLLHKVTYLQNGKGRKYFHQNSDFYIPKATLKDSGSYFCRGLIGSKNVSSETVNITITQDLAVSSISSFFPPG

[4] = target: T3, human FcγRIIaR extracellular domain with C-terminal His-tag (human, UniProt P12318 34-217); experiment: SPR, KD(SG1)/KD(variant)
T3 construct: also called human FcgRIIaR; FcγRIIa (type R)
T3 chain: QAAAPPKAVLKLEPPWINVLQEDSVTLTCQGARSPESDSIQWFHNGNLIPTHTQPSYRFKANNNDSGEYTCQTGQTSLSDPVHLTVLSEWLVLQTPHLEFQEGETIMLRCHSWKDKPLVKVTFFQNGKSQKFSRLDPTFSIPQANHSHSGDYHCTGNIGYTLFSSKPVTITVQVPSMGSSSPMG

[5] = target: T4, human FcγRIIIaV extracellular domain with C-terminal His-tag (human, UniProt P08637 17-208); experiment: SPR, KD(SG1)/KD(variant)
T4 construct: also called human FcgRIIIaV

[6] = target: T2, cynomolgus monkey FcγRIIIaS …; experiment: SPR, KD(SG1)/KD(variant)
[7] = target: T5, human FcγRIIb extracellular domain with C-terminal His-tag (human, UniProt P31994 43-217); experiment: SPR, KD(SG1)/KD(variant)
T5 construct: also called human FcgRIIb
T5 sequence: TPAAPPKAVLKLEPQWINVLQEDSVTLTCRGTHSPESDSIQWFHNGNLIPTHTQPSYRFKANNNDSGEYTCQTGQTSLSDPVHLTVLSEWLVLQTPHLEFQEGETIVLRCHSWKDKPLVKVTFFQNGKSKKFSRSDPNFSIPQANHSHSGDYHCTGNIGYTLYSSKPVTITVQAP

[8] = target: T6, cynomolgus monkey FcγRIIa2 extracellular domain with C-terminal His-tag (cynomolgus monkey); experiment: SPR, KD(SG1)/KD(variant)
T6 construct: also called cyno FcgRIIa2; cynoFcγRIIa2
T6 chain: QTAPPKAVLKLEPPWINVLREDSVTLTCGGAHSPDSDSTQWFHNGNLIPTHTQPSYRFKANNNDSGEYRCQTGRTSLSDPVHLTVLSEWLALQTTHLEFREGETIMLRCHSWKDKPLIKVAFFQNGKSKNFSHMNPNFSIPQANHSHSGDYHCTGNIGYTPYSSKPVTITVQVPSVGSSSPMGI

[9] = target: T2, cynomolgus monkey FcγRIIIaS …; experiment: SPR, antibody captured, FcγR analyte
Outline: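 Run at 25° C in HBS-EP+ running buffer, with the His-tagged cynomolgus FcγRIIIaS extracellular domain as analyte over captured antibody, chip regenerated with glycine-HCl pH1.5 and NaOH. KD (mol/L) came from ka/kd fitted by a 1:1 binding model.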

[10] = target: T2, cynomolgus monkey FcγRIIIaS …; experiment: SPR, antibody captured, FcγR analyte
[11] = target: T7, human FcγRIIaH extracellular domain with C-terminal His-tag (human, UniProt P12318 34-217); experiment: SPR, antibody captured, FcγR analyte
T7 construct: also called human FcgRIIaH; FcγRIIa (type H)
T7 sequence: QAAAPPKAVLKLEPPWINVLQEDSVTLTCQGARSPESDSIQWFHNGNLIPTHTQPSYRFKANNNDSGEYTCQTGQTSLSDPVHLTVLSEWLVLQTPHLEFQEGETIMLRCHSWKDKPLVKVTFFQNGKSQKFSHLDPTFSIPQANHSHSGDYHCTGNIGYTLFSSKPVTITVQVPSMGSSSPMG

[12] = target: T8, human FcγRIIb extracellular domain, C-terminal His-tag (human, UniProt P31994 43-217); experiment: SPR (BIACORE), antibody captured, FcgR analyte, 25 C
T8 construct: also called FcgRIIb
T8 sequence: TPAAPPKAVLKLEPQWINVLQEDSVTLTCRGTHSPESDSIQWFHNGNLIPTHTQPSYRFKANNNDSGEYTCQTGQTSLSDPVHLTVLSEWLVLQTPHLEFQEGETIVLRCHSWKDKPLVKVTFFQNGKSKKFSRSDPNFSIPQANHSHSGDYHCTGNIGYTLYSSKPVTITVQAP

[13] = target: T9, human FcγRIIb extracellular domain, His-tagged (human, UniProt P31994 43-217); experiment: SPR Biacore, KD(SG1)/KD(variant)
T9 construct: also called FcgRIIb (human); not shown: C-terminal His-tag
T9 sequence: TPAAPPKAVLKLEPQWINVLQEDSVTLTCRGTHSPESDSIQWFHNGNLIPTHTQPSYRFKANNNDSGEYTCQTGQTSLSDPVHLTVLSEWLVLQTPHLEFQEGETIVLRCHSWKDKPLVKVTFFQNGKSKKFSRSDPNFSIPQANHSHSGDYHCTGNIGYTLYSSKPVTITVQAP

[14] = target: T10, cynomolgus monkey FcγRIIIaS extracellular domain, His-tagged (cynomolgus monkey, UniProt Q8SPW2 21-206 at identity 1.00)); experiment: SPR Biacore, antibody captured, FcgR analyte
T10 construct: also called cyno FcγRIIIaS; cynoFcγRIIIaS; not shown: C-terminal His-tag
T10 chain: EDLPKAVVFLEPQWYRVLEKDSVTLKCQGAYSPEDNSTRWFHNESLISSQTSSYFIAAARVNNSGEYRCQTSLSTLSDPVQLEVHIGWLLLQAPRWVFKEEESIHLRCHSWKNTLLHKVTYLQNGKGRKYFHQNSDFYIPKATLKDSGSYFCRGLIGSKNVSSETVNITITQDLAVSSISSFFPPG

[15] = target: T11, human FcγRIIaR extracellular domain, His-tagged (human, UniProt P12318 34-217); experiment: SPR Biacore, antibody captured, FcgR analyte
T11 construct: also called human FcγRIIa (type R); FcgRIIaR; not shown: C-terminal His-tag
T11 chain: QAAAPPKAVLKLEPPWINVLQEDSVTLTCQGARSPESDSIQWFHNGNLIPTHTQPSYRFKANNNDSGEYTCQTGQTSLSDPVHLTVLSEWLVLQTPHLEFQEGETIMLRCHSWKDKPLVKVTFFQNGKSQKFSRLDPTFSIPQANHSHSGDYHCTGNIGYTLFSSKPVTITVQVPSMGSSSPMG

[16] = target: T9, human FcγRIIb extracellular domain, …; experiment: SPR Biacore, antibody captured, FcgR analyte
[17] = target: T12, cynomolgus monkey FcγRIIa2 extracellular domain, His-tagged (cynomolgus monkey); experiment: SPR Biacore, antibody captured, FcgR analyte
T12 construct: also called cyno FcγRIIa2; cynoFcgRIIa2; not shown: C-terminal His-tag
T12 chain: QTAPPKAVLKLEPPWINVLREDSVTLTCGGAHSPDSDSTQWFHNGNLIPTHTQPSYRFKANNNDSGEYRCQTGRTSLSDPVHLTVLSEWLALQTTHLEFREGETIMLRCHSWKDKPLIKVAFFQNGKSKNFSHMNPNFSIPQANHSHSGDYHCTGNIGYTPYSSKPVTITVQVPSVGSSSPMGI

T4 sequence (P08637 17-208 F176V): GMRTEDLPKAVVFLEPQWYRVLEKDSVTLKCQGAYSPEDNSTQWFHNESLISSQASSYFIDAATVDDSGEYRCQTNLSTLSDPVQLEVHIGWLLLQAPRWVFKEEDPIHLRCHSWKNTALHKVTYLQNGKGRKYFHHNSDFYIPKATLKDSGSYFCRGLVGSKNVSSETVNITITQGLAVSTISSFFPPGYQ

B1: MS_M103205H707-SG1/M103202L802-SK1 (antibody, human IgG1, kappa, V domains shown)
VH: QVTLKESGPVLVKPTETLTLTCTVSGIDLSHYDISWVRQAPGKGLEWVGIISYAGSTYYASWAKGRLTISKDTSKNQVVLTMTNMDPVDTATYYCARGVPAYSHGGDLWGQGTLVTVSS
VL: DIVMTQSPATLSLSPGERATLSCTSSQSVYHDNWLSWFQQKPGQPPKLLIYWASTLAYGVPSRFSGSGSGTDFTLTISSLQPEDAATYYCAGGYGGGLYAFGQGTKVEIKR
notes: also called MS1032LO04-SG1
Human latent myostatin [1]
  kon: 1.54e+06 M⁻¹ s⁻¹
Human latent myostatin [2]
  kon: 781000 M⁻¹ s⁻¹

B2: MS1032LO06-MY351 (antibody, human IgG1, kappa)
heavy: QVTLKESGPVLVKPTETLTLTCTVSGIDLSHDDISWVRQAPGKGLEWVGIISYAGSTYYASWAKGRLTISKDTSKNQVVLTMTNMDPVDTATYYCARGVPAYSHGGDLWGQGTLVTVSSASTKGPSVFPLAPSSKSTSGGTAALGCLVKDYFPEPVTVSWNSGALTSGVHTFPAVLQSSGLYSLSSVVTVPSSSLGTQTYICNVNHKPSNTKVDKKVEPKSCDKTHTCPPCPAPELLNGPSVFLFPPKPKDTLMISRTPEVTCVVVDVSDEDPEVKFNWYVDGVEVHNAKTKPREEQYNSTYRVVSVLTVLHRDWLNGKEYKCKVSNKALPKPIEKTISKAKGQPREPQVYTLPPSREEMTKNQVSLTCLVKGFYPSDIAVEWESNGQPENNYKTTPPVLDSDGSFFLYSKLTVKKSRWQQGNVFSCSVMHEALHNHYTQKSLSLSP
light: DIVMTQSPATLSLSPGERATLSCTSSQSVYHANWLSWFQQKPGQPPKLLIYWASTLAYGVPSRFSGSGSGTDFTLTISSLQPEDAATYYCAGGYGGGRYAFGQGTKVEIKRTVAAPSVFIFPPSDEQLKSGTASVVCLLNNFYPREAKVQWKVDNALQSGNSQESVTEQDSKDSTYSLSSTLTLSKADYEKHKVYACEVTHQGLSSPVTKSFNRGEC
notes: also called M103205H795-MY351; copies: 2 + 2
[3]
  KD fold (SG1 = 1): 0.07 fold
[4]
  KD fold (SG1 = 1): 0.8 fold
[5]
  KD fold (SG1 = 1): 0.03 fold
[6]
  KD fold (SG1 = 1): 0.07 fold
[7]
  KD fold (SG1 = 1): 4.7 fold
[8]
  KD fold (SG1 = 1): 3.8 fold
[9]
  Kd: 5.2 µM
[10]
  Kd: 4.1 µM
[11]
  Kd: 0.012 µM

B3: MS103240H795-SG1/M103202L1045-SK1 (antibody, human IgG1, kappa)
heavy: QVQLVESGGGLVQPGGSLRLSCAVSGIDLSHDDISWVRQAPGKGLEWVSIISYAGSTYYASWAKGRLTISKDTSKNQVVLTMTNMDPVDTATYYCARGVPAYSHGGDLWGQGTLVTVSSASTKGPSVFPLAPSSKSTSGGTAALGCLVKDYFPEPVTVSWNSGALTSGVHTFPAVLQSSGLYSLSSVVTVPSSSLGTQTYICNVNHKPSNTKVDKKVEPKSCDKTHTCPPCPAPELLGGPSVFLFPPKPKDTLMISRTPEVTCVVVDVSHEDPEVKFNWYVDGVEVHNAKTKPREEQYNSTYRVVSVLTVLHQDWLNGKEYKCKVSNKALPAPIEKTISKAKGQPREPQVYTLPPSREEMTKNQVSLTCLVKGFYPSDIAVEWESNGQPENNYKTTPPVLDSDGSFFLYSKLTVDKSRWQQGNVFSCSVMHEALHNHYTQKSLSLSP
light: DIVMTQSPATLSLSPGERATLSCTTSQSVYHENWLSWFQQKPGQPPKLLIYWASTLAYGVPSRFSGSGSGTDFTLTISSLQPEDAATYYCAGGYGGGRYAFGQGTKVEIKRTVAAPSVFIFPPSDEQLKSGTASVVCLLNNFYPREAKVQWKVDNALQSGNSQESVTEQDSKDSTYSLSSTLTLSKADYEKHKVYACEVTHQGLSSPVTKSFNRGEC
notes: Parent of the Fc variants; anti-latent myostatin variable region, human IgG1-type constant region SG1; also called MS1032LO19-SG1; copies: 2 + 2
[12]
  Kd: 5.8 µM

B4: M103205H795-MY001/M103202L889-SK1 (antibody, human IgG1, kappa, name in EU numbering)
heavy: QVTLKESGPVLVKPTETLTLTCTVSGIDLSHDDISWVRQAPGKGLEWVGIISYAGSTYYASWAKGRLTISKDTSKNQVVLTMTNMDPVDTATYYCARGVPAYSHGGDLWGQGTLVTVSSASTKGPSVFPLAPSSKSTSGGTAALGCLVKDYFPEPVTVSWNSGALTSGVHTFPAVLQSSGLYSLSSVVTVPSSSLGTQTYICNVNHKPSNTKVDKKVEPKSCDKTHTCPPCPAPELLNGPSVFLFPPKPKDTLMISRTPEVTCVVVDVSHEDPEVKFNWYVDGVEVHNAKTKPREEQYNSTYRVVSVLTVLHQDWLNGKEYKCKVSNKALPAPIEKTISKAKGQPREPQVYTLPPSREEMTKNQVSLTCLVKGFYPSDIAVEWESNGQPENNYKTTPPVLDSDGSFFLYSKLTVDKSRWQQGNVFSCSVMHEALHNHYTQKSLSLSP
light: DIVMTQSPATLSLSPGERATLSCTSSQSVYHANWLSWFQQKPGQPPKLLIYWASTLAYGVPSRFSGSGSGTDFTLTISSLQPEDAATYYCAGGYGGGRYAFGQGTKVEIKRTVAAPSVFIFPPSDEQLKSGTASVVCLLNNFYPREAKVQWKVDNALQSGNSQESVTEQDSKDSTYSLSSTLTLSKADYEKHKVYACEVTHQGLSSPVTKSFNRGEC
notes: Substitution introduced into M103205H795-SG1; EU numbering
[13]
  KD fold (SG1 = 1): 6.6 fold
[14]
  Kd: 12 µM

B5: M103205H795-MY074/M103202L889-SK1 (antibody, human IgG1, kappa, name in EU numbering)
heavy: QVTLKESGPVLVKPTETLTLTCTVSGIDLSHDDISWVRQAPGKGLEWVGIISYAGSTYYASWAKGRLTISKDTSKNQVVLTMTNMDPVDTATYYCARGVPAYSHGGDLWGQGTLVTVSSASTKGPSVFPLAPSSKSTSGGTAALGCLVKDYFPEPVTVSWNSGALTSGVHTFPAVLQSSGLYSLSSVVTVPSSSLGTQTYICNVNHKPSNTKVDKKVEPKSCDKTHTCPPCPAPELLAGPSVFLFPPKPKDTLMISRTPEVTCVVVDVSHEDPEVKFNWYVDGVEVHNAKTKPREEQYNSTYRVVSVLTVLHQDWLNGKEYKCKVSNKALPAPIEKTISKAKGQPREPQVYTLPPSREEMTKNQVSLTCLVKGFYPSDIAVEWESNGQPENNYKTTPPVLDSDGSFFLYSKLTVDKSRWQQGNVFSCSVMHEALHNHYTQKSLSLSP
light: DIVMTQSPATLSLSPGERATLSCTSSQSVYHANWLSWFQQKPGQPPKLLIYWASTLAYGVPSRFSGSGSGTDFTLTISSLQPEDAATYYCAGGYGGGRYAFGQGTKVEIKRTVAAPSVFIFPPSDEQLKSGTASVVCLLNNFYPREAKVQWKVDNALQSGNSQESVTEQDSKDSTYSLSSTLTLSKADYEKHKVYACEVTHQGLSSPVTKSFNRGEC
notes: as for B4
[15]
  Kd: 0.21 µM
[16]
  Kd: 3.6 µM
[17]
  Kd: 2.3 µM
